Patent WO2021212049A2

Biological target: recombinant SARS-CoV-2 S protein ectodomain (residues 14-1211), 2P, furin site mutated, foldon, 8XHis (SARS-CoV-2) (UniProt P0DTC2)
Test: ELISA on coated antigen, anti-human IgG-HRP

## mAb 2B04 (antibody)
  minimum positive concentration: < 5 µg/mL
